Experimental data from article PMC8809517, “Cofactor-independent RNA editing by a synthetic S-type PPR protein”.

How the values were obtained:
Experiment in all cases: high-throughput RNA pulldown from lysate on Ni-NTA beads; HRP: 50 mM Tris pH 8, 150 mM NaCl, 1 mM beta-mercaptoethanol, 50 ug/ml BSA, 3 ug/ml yeast RNA, 0.5% heparin; ITC and FP: Tris pH 8, 200 mM KCl, 5% glycerol; MST: 50 mM Tris pH 8, 200 mM NaCl, 1 mM DTT, BSA, heparin, 0.05% Tween 20
Conditions in all cases: tags: N-terminal His-eGFP
[1] = target: T1, GFP-9S library array, motif 4 ND N98C;D124M (synthetic construct, N98C;D124M)
T1 chain: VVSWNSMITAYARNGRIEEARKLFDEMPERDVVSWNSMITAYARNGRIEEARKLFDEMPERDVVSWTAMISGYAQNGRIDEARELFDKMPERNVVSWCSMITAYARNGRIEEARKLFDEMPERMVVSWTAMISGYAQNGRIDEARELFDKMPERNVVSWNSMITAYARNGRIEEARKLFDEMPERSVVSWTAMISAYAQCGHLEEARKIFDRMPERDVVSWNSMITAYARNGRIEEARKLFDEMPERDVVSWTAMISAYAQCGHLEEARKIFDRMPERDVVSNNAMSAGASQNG

[2] = target: T2, GFP-9S library array, motif 4 ND N98R;D124T (synthetic construct, N98R;D124T)
T2 chain: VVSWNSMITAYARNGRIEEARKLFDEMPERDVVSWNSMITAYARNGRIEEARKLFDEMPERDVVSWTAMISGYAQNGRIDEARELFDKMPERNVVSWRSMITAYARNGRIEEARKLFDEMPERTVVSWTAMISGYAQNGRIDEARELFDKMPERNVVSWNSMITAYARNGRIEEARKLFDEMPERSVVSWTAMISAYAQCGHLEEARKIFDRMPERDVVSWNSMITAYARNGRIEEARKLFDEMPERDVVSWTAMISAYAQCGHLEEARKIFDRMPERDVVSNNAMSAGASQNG

[3] = target: T3, GFP-9S library array, motif 4 ND N98K;D124Q (synthetic construct, N98K;D124Q)
T3 chain: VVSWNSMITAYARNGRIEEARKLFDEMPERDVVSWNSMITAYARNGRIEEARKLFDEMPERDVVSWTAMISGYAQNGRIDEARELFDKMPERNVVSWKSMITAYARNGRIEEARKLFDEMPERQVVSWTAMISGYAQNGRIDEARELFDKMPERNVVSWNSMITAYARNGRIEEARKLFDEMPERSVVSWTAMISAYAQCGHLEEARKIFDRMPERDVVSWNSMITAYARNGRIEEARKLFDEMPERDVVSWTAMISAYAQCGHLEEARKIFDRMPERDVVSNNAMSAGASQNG

[4] = target: T4, GFP-9S library array, motif 4 ND N98S;D124Q (synthetic construct, N98S;D124Q)
T4 chain: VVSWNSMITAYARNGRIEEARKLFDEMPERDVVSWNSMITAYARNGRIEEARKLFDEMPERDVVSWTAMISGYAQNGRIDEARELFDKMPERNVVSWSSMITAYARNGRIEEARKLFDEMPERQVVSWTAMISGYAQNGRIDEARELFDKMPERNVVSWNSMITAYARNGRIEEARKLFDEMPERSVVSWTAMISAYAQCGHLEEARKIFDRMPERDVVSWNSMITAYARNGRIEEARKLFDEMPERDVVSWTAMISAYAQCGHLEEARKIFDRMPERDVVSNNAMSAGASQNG

[5] = target: T5, GFP-9S library array, motif 4 ND N98G;D124P (synthetic construct, N98G;D124P)
T5 chain: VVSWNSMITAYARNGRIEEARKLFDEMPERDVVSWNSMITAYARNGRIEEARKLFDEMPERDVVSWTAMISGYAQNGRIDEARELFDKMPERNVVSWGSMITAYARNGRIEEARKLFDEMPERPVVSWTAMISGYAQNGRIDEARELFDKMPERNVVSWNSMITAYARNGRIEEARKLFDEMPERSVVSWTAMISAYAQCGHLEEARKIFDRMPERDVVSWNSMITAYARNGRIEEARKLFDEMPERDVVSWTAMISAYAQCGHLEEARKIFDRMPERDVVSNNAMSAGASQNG

## AUUAGACGUGA (ssRNA) [Cy5-rpoA-G]
[1]; label: 5' Cy5
  Kd: 113 nM
[2]; label: 5' Cy5
  Kd: 98.5 nM
[3]; label: 5' Cy5
  Kd: 81.3 nM
[4]; label: 5' Cy5
  Kd: 39.2 nM
[5]; label: 5' Cy5
  Kd: 127 nM

## AUUAAACGUGA (ssRNA) [IR-rpoA-A]
[1]; label: 5' IRDye 800CW
  Kd: 266 nM
[2]; label: 5' IRDye 800CW
  Kd: 173 nM
[3]; label: 5' IRDye 800CW
  Kd: 110 nM
[4]; label: 5' IRDye 800CW
  Kd: 40.3 nM
[5]; label: 5' IRDye 800CW
  Kd: 179 nM

## AUUAUACGUGA (ssRNA) [IR-rpoA-U]
[1]; label: 5' IRDye 800CW
  Kd: 179 nM
[2]; label: 5' IRDye 800CW
  Kd: 85.9 nM
[3]; label: 5' IRDye 800CW
  Kd: 63.7 nM
[4]; label: 5' IRDye 800CW
  Kd: 179 nM
[5]; label: 5' IRDye 800CW
  Kd: 128 nM

## AUUACACGUGA (ssRNA) [Cy5-rpoA]
[1]; label: 5' Cy5
  Kd: 90.5 nM
[2]; label: 5' Cy5
  Kd: 74.7 nM
[3]; label: 5' Cy5
  Kd: 71.3 nM
[4]; label: 5' Cy5
  Kd: 95.2 nM
[5]; label: 5' Cy5
  Kd: 85.9 nM
